# Reference: patent publication US8465945B2, “Method for production and use of mite group 1 proteins” (Merck Patent GmbH, priority 1999, dated 2013)
# B1: PDerf1223b: Recombinant mature form of Der f 1 (SEQ ID NO:32) expressed by P. pastoris from nDerf1669b (protein, listed as Dermatophagoides farinae)
# chain: TSACRINSVNVPSELDLRSLRTVTPIRMQGGCGSCWAFSGVAATESAYLAYRNTSLDLSEQELVDCASQHGCHGDTIPRGIEYIQQNGVVEERSYPYVAREQRCRRPNSQHYGISNYCQIYPPDVKQIREALTQTHTAIAVIIGIKDLRAFQHYDGRTIIQHDNGYQPNYHAVNIVGYGSTQGVDYWIVRNSWDTTWGDSGYGYFQAGNNLMMIEQYPYVVIM
# B2: PDerf1303c: Recombinant pro-form of Der f 1 (SEQ ID NO:35) expressed in E. coli from nDerf1909c, refolded from inclusion bodies (protein, listed as Dermatophagoides farinae)
# chain: RPASIKTFEEFKKAFNKNYATVEEEEVARKNFLESLKYVEANKGAINHLSDLSLDEFKNRYLMSAEAFEQLKTQFDLNAETSACRINSVNVPSELDLRSLRTVTPIRMQGGCGSCWAFSGVAATESAYLAYRNTSLDLSEQELVDCASQHGCHGDTIPRGIEYIQQNGVVEERSYPYVAREQRCRRPNSQHYGISNYCQIYPPDVKQIREALTQTHTAIAVIIGIKDLRAFQHYDGRTIIQHDNGYQPNYHAVNIVGYGSTQGVDYWIVRNSWDTTWGDSGYGYFQAGNNLMMIEQYPYVVIM
# Experiments:
# [1] = tested on: IgE from mite-allergic or normal human sera; test: ELISA, binding of IgE from human sera to coated Der f 1 proteins or mite extracts, detected with FcεR1α-biotin
# [2] = tested on: IgE from mite-allergic dog sera; test: ELISA, binding of IgE from dog sera to coated Der f 1 proteins or mite extracts, detected with FcεR1α-biotin
# Procedure: Native or recombinant Der f 1 proteins in 100 μl CBC buffer (50 mM sodium carbonate, pH 9.6) were coated onto wells (100 ng per well) of Immulon II microtiter plates (available from Dynex Technologies, Chantilly, Va.) by incubation at 4° C., covered, overnight. Excess fluid was removed and wells were blocked with 200 μl Assay Buffer (4% fetal calf serum (available from Summit Laboratories, Fort Collins, Colo.) in phosphate buffered saline (PBS, recipe in Sambrook, ibid.), plus 0.05% Tween-20 (available from Sigma, St. Louis, Mo.)) for one hour at room temperature. Plates were then washed for 4 cycles on an automatic plate washer (Ultrawash, available from Dynatech Laboratories) using PBS with 0.05% Tween-20. […] Control wells were treated identically except that no serum was added. Plates were then washed as described above. Biotinylated human IgE receptor alpha chain (FcεR1α-biotin) (100 μl of 1.3 ng/ml) prepared as described in U.S. Pat. No. 5,945,294, ibid., was added and incubated for one hour at room temperature. After this incubation, plates were washed as described above. Streptavidin-horseradish peroxidase conjugate (0.5 mg/ml, available from KPL Labs, Gaithersburg, Md.) was added at a 1:5000 dilution in Assay Buffer for one hour at room temperature, after which plates were washed as described above. TMB Peroxidase substrate system, 2 part (available from KPL Labs, #0-76-00), added at 100 μl per well, was used according to the manufacturer's directions. The color reaction was allowed to proceed until good color development was reached (about 10-15 min); then the reaction was stopped with 100 μl per well of 1 M phosphoric acid. Bound IgE was determined by measuring absorbance (Optical Density, or OD) at 450 nm (nanometers) using an ELISA plate reader (such as Spectramax”, Molecular Devices, Sunnyvale, Calif.). Background OD readings in the control wells were subtracted from all numbers. Results are reported in Tables 1, 2 and 3 as OD multiplied by 1000. OD numbers greater than 100 are considered to be positive for a reaction with IgE. P. pastoris-expressed proteins are denoted in the Tables as Pichia expressed proteins.
# [3] = tested on: anti-Der f 1 MAb 6A8 (capture) and anti-Der f 1 MAb 4C1 (detection); test: Monoclonal Capture ELISA; type: binding
# Procedure: Assays were carried out as follows. A microtiter plate as described in Example 5 was coated overnight at 4° C. with 100 ng/well of anti-Der f 1 protein monoclonal antibody 6A8, denoted herein as anti-Der f 1 MAb 6A8, provided by Dr. Martin Chapman. The plate was washed in the manner described above. The following proteins were then added to wells, having been diluted in Assay Buffer in a 2-fold dilution series, from 0.75 to 50 ng/well: Heska native Derf1, P. pastoris-expressed PDerf1303b, and E. coli-expressed PDerf1303c. After incubation for 1 hour at room temperature, plates were washed as described in Example 5. Then 100 μl per well of a 1:1000 dilution in Assay Buffer of biotinylated anti-Der f 1 monoclonal antibody 4C1, also denoted anti-Der f 1 MAb 4C1, provided by Dr. Martin Chapman, was added for 1 hour at room temperature. Plates were washed, streptavidin-HRP conjugate was added, and plates were developed as described in Example 5.
molecule,measurement,setting,value
B1,"OD, bound IgE","[1]; Table 3, sera 429, PDerf1303b preparation number A166-26, PDerf1223b preparation 1000-7",63 OD multiplied by 1000
same,"OD, bound IgE","[1]; Table 3, sera 1916, PDerf1303b preparation number A166-26, PDerf1223b preparation 1000-7",0 OD multiplied by 1000
same,"OD, bound IgE","[1]; Table 3, sera 3848, PDerf1303b preparation number A166-26, PDerf1223b preparation 1000-7",1253 OD multiplied by 1000
same,"OD, bound IgE","[1]; Table 3, sera 3958, PDerf1303b preparation number A166-26, PDerf1223b preparation 1000-7",1224 OD multiplied by 1000
same,"OD, bound IgE","[1]; Table 3, sera 3960, PDerf1303b preparation number A166-26, PDerf1223b preparation 1000-7",634 OD multiplied by 1000
same,"OD, bound IgE","[1]; Table 3, sera 3961, PDerf1303b preparation number A166-26, PDerf1223b preparation 1000-7",301 OD multiplied by 1000
same,"OD, bound IgE","[1]; Table 3, sera 3987, PDerf1303b preparation number A166-26, PDerf1223b preparation 1000-7",1078 OD multiplied by 1000
same,"OD, bound IgE","[1]; Table 3, sera 4467, PDerf1303b preparation number A166-26, PDerf1223b preparation 1000-7",432 OD multiplied by 1000
same,"OD, bound IgE","[1]; Table 3, sera 5207, PDerf1303b preparation number A166-26, PDerf1223b preparation 1000-7",1096 OD multiplied by 1000
same,"OD, bound IgE","[1]; Table 3, sera human pool, PDerf1303b preparation number A166-26, PDerf1223b preparation 1000-7",774 OD multiplied by 1000
B2,"OD, bound IgE","[1]; Assay Number 1, serum human 1916",18 OD multiplied by 1000
same,"OD, bound IgE","[1]; Assay Number 1, serum human3848",2291 OD multiplied by 1000
same,"OD, bound IgE","[1]; Assay Number 1, serum human 3958",147 OD multiplied by 1000
same,"OD, bound IgE","[1]; Assay Number 1, serum human 3960",1442 OD multiplied by 1000
same,"OD, bound IgE","[1]; Assay Number 1, serum human 3961",67 OD multiplied by 1000
same,"OD, bound IgE","[1]; Assay Number 1, serum human 3987",1416 OD multiplied by 1000
same,"OD, bound IgE","[1]; Assay Number 1, serum human 4289",29 OD multiplied by 1000
same,"OD, bound IgE","[1]; Assay Number 1, serum human 4467",236 OD multiplied by 1000
same,"OD, bound IgE","[1]; Assay Number 1, serum human 5207",1902 OD multiplied by 1000
same,"OD, bound IgE","[1]; Assay Number 1, serum human pool",883 OD multiplied by 1000
same,"OD, bound IgE","[1]; Assay Number 2, serum Heska human B",0 OD multiplied by 1000
same,"OD, bound IgE","[1]; Assay Number 2, serum Heska human C",4 OD multiplied by 1000
same,"OD, bound IgE","[1]; Assay Number 2, serum Heska human D",0 OD multiplied by 1000
same,"OD, bound IgE","[1]; Assay Number 2, serum Heska human E",10 OD multiplied by 1000
same,"OD, bound IgE","[1]; Assay Number 2, serum Heska human F",0 OD multiplied by 1000
same,"OD, bound IgE","[1]; Assay Number 2, serum Heska human G",0 OD multiplied by 1000
same,"OD, bound IgE","[1]; Assay Number 2, serum Heska human H",0 OD multiplied by 1000
same,"OD, bound IgE","[1]; Assay Number 2, serum Heska human I",1 OD multiplied by 1000
same,"OD, bound IgE","[1]; Assay Number 2, serum Heska human J",0 OD multiplied by 1000
same,"OD, bound IgE","[1]; Assay Number 2, serum Heska human K",0 OD multiplied by 1000
same,"OD, bound IgE","[1]; Assay Number 2, serum Heska human L",0 OD multiplied by 1000
same,"OD, bound IgE","[1]; Assay Number 2, serum Heska human M",0 OD multiplied by 1000
same,"OD, bound IgE","[1]; Assay Number 2, serum Heska human N",24 OD multiplied by 1000
same,"OD, bound IgE","[1]; Assay Number 2, serum Heska human O",2 OD multiplied by 1000
same,"OD, bound IgE","[1]; Assay Number 2, serum Heska human P",0 OD multiplied by 1000
same,"OD, bound IgE","[1]; Assay Number 2, serum Heska human Q",0 OD multiplied by 1000
same,"OD, bound IgE","[1]; Assay Number 2, serum Heska human R",0 OD multiplied by 1000
same,"OD, bound IgE","[1]; Assay Number 2, serum human 1916",21 OD multiplied by 1000
same,"OD, bound IgE","[1]; Assay Number 2, serum human 3848",2378 OD multiplied by 1000
same,"OD, bound IgE","[1]; Assay Number 2, serum human 3958",247 OD multiplied by 1000
same,"OD, bound IgE","[1]; Assay Number 2, serum human 3960",944 OD multiplied by 1000
same,"OD, bound IgE","[1]; Assay Number 2, serum human 3961",46 OD multiplied by 1000
same,"OD, bound IgE","[1]; Assay Number 2, serum human 3987",1477 OD multiplied by 1000
same,"OD, bound IgE","[1]; Assay Number 2, serum human 4289",47 OD multiplied by 1000
same,"OD, bound IgE","[1]; Assay Number 2, serum human 4467",277 OD multiplied by 1000
same,"OD, bound IgE","[1]; Assay Number 2, serum human 5207",2122 OD multiplied by 1000
same,"OD, bound IgE","[1]; Assay Number 2, serum human pool",1161 OD multiplied by 1000
same,reactivity: share of human serum samples reactive to native Der f 1 proteins that are also reactive to the recombinant protein,"[1]; Table 1, 9 human samples (8 sera and pool), OD numbers greater than 100 positive",78%
same,reactivity: share of human serum samples reactive to native Der f 1 proteins that are also reactive to the recombinant protein,"[1]; Table 2, 10 human serum samples",70%
same,"OD, bound IgE","[2]; Assay Number 1, serum dog pool",615 OD multiplied by 1000
same,"OD, bound IgE","[2]; Assay Number 1, serum dog-1",0 OD multiplied by 1000
same,"OD, bound IgE","[2]; Assay Number 1, serum dog-2",258 OD multiplied by 1000
same,"OD, bound IgE","[2]; Assay Number 1, serum dog-3",45 OD multiplied by 1000
same,"OD, bound IgE","[2]; Assay Number 2, dog sera pool A 146",489 OD multiplied by 1000
same,"OD, bound IgE","[2]; Assay Number 2, dog sera pool KS338",68 OD multiplied by 1000
same,"dog serum samples bound, of those that bound to native Der f 1 proteins",[2]; Table 1,1 of 2
same,"OD, protein captured by MAb 6A8 and detected by MAb 4C1",[3]; 0.75 ng protein per well,136 OD
same,"OD, protein captured by MAb 6A8 and detected by MAb 4C1",[3]; 1.5 ng protein per well,268 OD
same,"OD, protein captured by MAb 6A8 and detected by MAb 4C1",[3]; 2.5 ng protein per well,1372 OD
same,"OD, protein captured by MAb 6A8 and detected by MAb 4C1",[3]; 3.1 ng protein per well,503 OD
same,"OD, protein captured by MAb 6A8 and detected by MAb 4C1",[3]; 6.25 ng protein per well,890 OD
same,"OD, protein captured by MAb 6A8 and detected by MAb 4C1",[3]; 25 ng protein per well,1770 OD
same,"OD, protein captured by MAb 6A8 and detected by MAb 4C1",[3]; 50 ng protein per well,1983 OD
